Experimental data from patent publication US20230212239A1, “INHIBITORS OF CBL AUTOINHIBITION AND RELATED METHODS” (THE HOSPITAL FOR SICK CHILDREN, priority 2020, published 2023).
Residue numbers refer to the chain shown, from its start. Names and notes keep the numbering of the source.

What was measured:
[1] = biological target: T1, CBL (47-357), co-expressed from pETDuet-1 MCS2 (UniProt P22681 47-357); assay: Ni-NTA co-purification from Duet co-expression, high salt (0.5 M NaCl), Coomassie SDS-PAGE
T1 construct: range 47-357; Untagged partner in the Duet co-purification trials; also called CBL TKBD
T1 sequence (looked up): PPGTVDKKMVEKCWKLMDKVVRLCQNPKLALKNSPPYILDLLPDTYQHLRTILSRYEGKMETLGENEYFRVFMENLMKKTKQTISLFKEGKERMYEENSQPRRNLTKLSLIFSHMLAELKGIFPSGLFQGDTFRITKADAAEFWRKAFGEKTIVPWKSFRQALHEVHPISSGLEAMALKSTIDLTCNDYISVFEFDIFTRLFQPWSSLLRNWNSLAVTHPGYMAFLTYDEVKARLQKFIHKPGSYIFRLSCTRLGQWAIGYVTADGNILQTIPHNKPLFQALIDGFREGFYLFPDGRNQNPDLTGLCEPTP
Description: (§1) Cell pellets were resuspended in either high or low salt (as for high salt except 25 mM HEPEs pH 7.5, 150 mM NaCl) lysis buffer and purified as above on Ni-NTA agarose (Qiagen) with wash buffer (25 mM HEPEs pH 7.5, 150 mM NaCl, 2% glycerol, 20 mM imidazole, 10 mM βME). Bead slurry was mixed with SDS 2X loading buffer (125 mM Tris pH 6.8, 4% SDS, 20% glycerol, 0.715 M βME, bromophenol blue), boiled, and analyzed by 10 or 12.5% SDS-PAGE, stained with Coomassie blue.

[2] = biological target: T2, CBL TKBD-LHR-RING (2-436), unphosphorylated (Homo sapiens, UniProt P22681); assay: In vitro ubiquitination assay, anti-ubiquitin immunoblot; format: biochemical; details: anti-Ub immunoblot and E3LITE (FIGS. 11A,B, 10B-D)
T2 construct: GST (N, cleaved yes); made in house; host or cells: E. coli BL-21
T2 sequence (P22681 2-436): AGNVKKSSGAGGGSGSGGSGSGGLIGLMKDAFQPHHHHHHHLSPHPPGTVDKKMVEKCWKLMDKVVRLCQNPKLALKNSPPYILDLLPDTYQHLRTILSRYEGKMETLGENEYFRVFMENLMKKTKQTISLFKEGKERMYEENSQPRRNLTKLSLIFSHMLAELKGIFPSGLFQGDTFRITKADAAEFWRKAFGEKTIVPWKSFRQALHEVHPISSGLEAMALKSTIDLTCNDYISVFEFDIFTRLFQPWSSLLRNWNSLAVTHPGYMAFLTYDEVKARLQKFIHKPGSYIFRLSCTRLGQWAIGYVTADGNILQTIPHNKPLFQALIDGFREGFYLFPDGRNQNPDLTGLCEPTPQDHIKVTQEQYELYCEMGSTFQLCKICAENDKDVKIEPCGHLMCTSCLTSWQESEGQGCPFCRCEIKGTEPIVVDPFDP
From the text: Given that binding of SLAP2 and the LHR-RING would be mutually exclusive (FIG. 8C), we reasoned that binding of SLAP2 to CBL could displace the LHR-RING, thereby promoting the catalytically competent conformation. To test this hypothesis, an in vitro ubiquitination assay in which E3 ligase activity is detected by a smear at high molecular weight on an anti-ubiquitin (Ub) immunoblot was employed. […] To further compare and quantify CBL ubiquitin ligase activity, a chemiluminescence based assay which measures the total amount of polyubiquitylated products formed in an in vitro reaction was used. In this assay, production of polyubiquitylated proteins increased upon addition of SLAP2 or pSLAP2 to CBL, compared to CBL alone (FIG. 9C and FIG. 10A).
In vitro ubiquitination reactions were prepared with 20 pmol of CBL or pCBL and 60 pmol of hSLAP2 or phosphorylated hSLAP2 (pSLAP2) for both WT and mutants. Reagents were thawed and reactions prepared on ice. CBL and SLAP2 were mixed in PBS (with 5 mM βME, 5 mM caproic acid, 0.5 mM PMSF, and 0.5 mM Na3VO4) at rt for 5-10 min before addition of master mix (42 pmol E1 (UBE1, Boston Biochem or Ubiquitin-Proteasome Biotechnologies), 0.1 µmol E2 (UbcH5b/UBE2D2, Boston Biochem #E2-622), […], and 11.6 µmol ubiquitin (Boston Biochem #U-100H) in reaction buffer (0.2 M Tris pH 7.5, 10 mM MgCl2, 2 mM DTT). Reactions were incubated at 30° C. shaking at 500-700 rpm for 60-110 minutes and terminated by addition of SDS 2X loading buffer and boiling for 5-10 minutes. Equal volumes of each reaction were loaded on 12.5% SDS-PAGE gel, transferred to PVDF membrane, and immunoblotted for ubiquitin as per standard protocols (anti-ubiquitin antibody P4G7, BioLegend #838701, 1:1000; anti-mouse IgG HRP-linked antibody, Cell Signaling Technology #7076, 1:10000; Western Lightning Plus ECL, Perkin Elmer).

CBL TKBD [3] = assay: Co-purification of CBL TKBD with Trx-His-SLAP2/SLAP (Duet co-expression, Ni-NTA, SDS-PAGE); format: binding; details: low salt concentration (0.15 M NaCl)
From the text: (§2) To validate the CBL/SLAP2 binding interface, a series of mutants in a Duet co-expression vector system was generated for co-purification trials. The SLAP2 sequence was preceded by thioredoxin (Trx) and His-tag fusion proteins to allow co-purification of CBL TKBD that was bound to Trx-His-SLAP2 during the initial affinity chromatography purification step. Surface residues deemed to be important to the CBL/SLAP2 interface, but not CBL function or folding, were mutated to disrupt CBL/SLAP2 binding (FIG. 5C and FIG. 6). In our structure, SLAP2 Gly240 locates close to CBL Met269 and Ala270, such that mutation to a bulky Arg residue (G240R) could cause sterical constraints. Similarly, SLAP2 Leu241 is situated in a hydrophobic cleft composed of CBL Ala223, Trp258, and Val263; mutation to Arg (L241R) was predicted to disturb this binding pocket. Mutation of CBL Ala223 to Arg (A223R) would likewise disrupt this pocket, with CBL/SLAP2 double mutant A223R/L241R predicted to drastically disturb binding through sterical constraints and charge repulsion. (For clarity, CBL mutations herein are indicated in italics, SLAP2 in regular font.) Similarly, single or double mutation of CBL Ser226 or SLAP2 Ser244, whose side chain hydroxyl groups are in close proximity to one another, to charged Glu residues (S226E and S244E) was anticipated to interfere with CBL/SLAP2 binding. Finally, given that SLAP2 binds CBL as an α-helix, mutation of Leu245, located in the center of this α-helix, to proline (L245P) was expected to interrupt the helical structure and thus prevent SLAP2 binding. […] However, double mutation of the CBL/SLAP2 interface (A223R/L241R and S226E/S244E; FIG. 5D, lower panel) was not tolerated, even at low salt concentration.
as §1, with “For co-purification of CBL and SLAP2/SLAP, Duet-His-hSLAP2-CBL 29-261 Δ198-229 and 29-254 Δ198-229, Duet-His-Δlinker-hSLAP2-CBL WT and point mutants, and Duet-His-mSLAP-CBL WT and point mutants were overexpressed in E. coli BL-21 as above or TKB1 competent cells (Stratagene) as per manufacturer’s instructions, and cells harvested as above (except 100 mL of LB, overnight at 16-18° C., and 0.35-0.5 mM IPTG induction). Cell” for “Cell”

CBL TKBD [4] = biological target: T3, CBL TKBD (Homo sapiens, UniProt P22681); assay: as above; format: binding; details: conditions where SLAP2 was tyrosine phosphorylated (TKB1), low salt
T3 construct: with CBL (47-357) cloned in frame into MCS2 of the same pETDuet-1 vector; made in house
T3 sequence (P22681 47-357): T1 sequence (looked up)
From the text: as §2
as §1, with “For co-purification of CBL and SLAP2/SLAP, Duet-His-hSLAP2-CBL 29-261 Δ198-229 and 29-254 Δ198-229, Duet-His-Δlinker-hSLAP2-CBL WT and point mutants, and Duet-His-mSLAP-CBL WT and point mutants were overexpressed in E. coli BL-21 as above or TKB1 competent cells (Stratagene) as per manufacturer’s instructions, and cells harvested as above (except 100 mL of LB, overnight at 16-18° C., and 0.35-0.5 mM IPTG induction). Cell” for “Cell”

[5] = biological target: the molecule itself; assay: X-ray crystal structure; two SLAP2 helices in the asymmetric unit

B1: Trx-His(6)-Δlinker-hSLAP2 L245P (other)
chain: EAERSKATAVALGSFPAGGPAELSLRLGEPLTIVSEDGDWWTVLSEVSGREYNIPSVHVAKVSHGWLYEGLSREKAEELLLLPGNPGGAFLIRESQTRRGSYSLSVRLSRPASWDRIRHYRIHCLDNGWLYISPRLTFPSLQALVDHYSELADDICCLLKEPCVLQRAGPLPGKDIPLPVTVQRTPLNWKELDSSLLFSEAATGEESLLSEGLRESPSFYISLNDEAVSLDDA
notes: Point mutant within Duet-His-Δlinker-hSLAP2-CBL; not shown: N-terminal Trx-His(6)-TEV site fusion of the modified pET32a (Δlinker form)
binding result [1]: no binding

B2: SLAP2 R242A: SLAP2 mutant in the SLAP2/SLAP2 interface (protein)
chain: B1 chain with R214A, P217L
modifications: left off: large carriers; small tags and cut ends
notes: SLAP2 mutant in the SLAP2/SLAP2 interface
stimulation/activation of CBL ubiquitination activity by SLAP2 mutants versus WT [2]: did not alter SLAP2 or pSLAP2 activation of CBL | CBL TKBD co-purification (CBL TKBD [3]): did not significantly impact co-purification of CBL

B3: SLAP2 S246/250E: SLAP2 double mutant in the SLAP2/SLAP2 interface (protein)
chain: B1 chain with P217L, S218E, S222E
modifications: left off: large carriers; small tags and cut ends
notes: SLAP2 double mutant in the SLAP2/SLAP2 interface
stimulation/activation of CBL ubiquitination activity by SLAP2 mutants versus WT [2]: did not alter SLAP2 or pSLAP2 activation of CBL | CBL TKBD co-purification (CBL TKBD [3]): did not significantly impact co-purification of CBL

B4: SLAP2 I249W: SLAP2 mutant in the SLAP2/SLAP2 interface (protein)
chain: B1 chain with P217L, I221W
modifications: left off: large carriers; small tags and cut ends
notes: as for B2
stimulation/activation of CBL ubiquitination activity by SLAP2 mutants versus WT [2]: did not alter SLAP2 or pSLAP2 activation of CBL | CBL TKBD co-purification (CBL TKBD [3]): did not significantly impact co-purification of CBL

B5: SLAP2 Y248F: SLAP2 Tyr248 to Phe mutant, expressed under phosphorylating conditions (protein)
chain: B1 chain with P217L, Y220F
modifications: left off: large carriers; small tags and cut ends
notes: SLAP2 Tyr248 to Phe mutant, expressed under phosphorylating conditions
CBL TKBD co-purification (CBL TKBD [4]): co-purified

B6: Phosphorylated SLAP2 L241R: phosphorylated SLAP2 point mutant L241R at CBL/SLAP2 interface (protein, UniProt Q9H6Q3 2-261, looked up, variant L241R)
Src-like-adapter 2: GSLPSRRKSLPSPSLSSSVQGQGPVTMEAERSKATAVALGSFPAGGPAELSLRLGEPLTIVSEDGDWWTVLSEVSGREYNIPSVHVAKVSHGWLYEGLSREKAEELLLLPGNPGGAFLIRESQTRRGSYSLSVRLSRPASWDRIRHYRIHCLDNGWLYISPRLTFPSLQALVDHYSELADDICCLLKEPCVLQRAGPLPGKDIPLPVTVQRTPLNWKELDSSLLFSEAATGEESLLSEGRRESLSFYISLNDEAVSLDDA
modifications: tyrosine phosphorylated
notes: phosphorylated SLAP2 point mutant L241R at CBL/SLAP2 interface
stimulation/activation of CBL ubiquitination activity by SLAP2 mutants versus WT [2]: reduced stimulation of CBL ubiquitination activity compared to pSLAP2 WT

B7: Phosphorylated SLAP2 S244E: phosphorylated SLAP2 point mutant S244E at CBL/SLAP2 interface (protein, UniProt Q9H6Q3 2-261, looked up, variant S244E)
Src-like-adapter 2: B6 Src-like-adapter 2 with R240L, S243E
modifications: phosphorylated
notes: phosphorylated SLAP2 point mutant S244E at CBL/SLAP2 interface
stimulation/activation of CBL ubiquitination activity by SLAP2 mutants versus WT [2]: less stimulation of CBL ubiquitination activity than pSLAP2 WT

B8: mouse SLAP2 (residues 28-259) (other, UniProt Q8R4L0 28-259, looked up)
chain: QPERHKVTAVALGSFPAGEQARLSLRLGEPLTIISEDGDWWTVQSEVSGREYHMPSVYVAKVAHGWLYEGLSREKAEELLLLPGNPGGAFLIRESQTRRGCYSLSVRLSRPASWDRIRHYRIQRLDNGWLYISPRLTFPSLHALVEHYSELADGICCPLREPCVLQKLGPLPGKDTPPPVTVPTSSLNWKKLDRSLLFLEAPASGEASLLSEGLRESLSSYISLAEDPLDDA
notes: range 28-259; Trx-His(6) tag removed with thrombin; In the crystal only residues 237-255 are seen; also called mSLAP2; Trx-His(6)-mSLAP2 (before thrombin cleavage)
binding result [5]: binds
